In the supplement of paper PMC9170038:

Key:
[1] = test system: MS2 coat protein; assay: apparent KD of MS2 coat protein, switch ON state; designed switch direction (-1 OFF switch, 1 ON switch): -1; higher = weaker reporter binding; details: FMN input: 0 or 200 uM; Eterna round: R93 (includes R88 designs)
Method in brief: (§1)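 With or without constant ligand, designed RNA switches in 100 mM Tris-HCl pH 7.5, 80 mM KCl and 4 mM MgCl2 were titrated with SNAP-549-labelled MS2 coat protein. Concentrations went up in twofold steps from 0.7 or 1.5 nM to 3 µM. The switches had been transcribed on-chip from Illumina sequencing clusters, and apparent KD is the per-design median of normalised cluster binding-curve fits.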

[2] = test system: MS2 coat protein; assay: apparent KD of MS2 coat protein, switch OFF state (with FMN for OFF switches, without FMN for ON switches); designed switch direction (-1 OFF switch, 1 ON switch): -1; higher = weaker reporter binding; details: FMN input: 0 or 200 uM; Eterna round: R93 (includes R88 designs)
Method in brief: as §1

Sequence: AAAUUGUCAGGAUAUCGUAUAAUAUGGAAAACAUAGAGAUACGAGAAGGGACAUGAGGAUCACCCAUGUAAAAC [May 96]
- apparent KD of MS2 coat protein [1]: 36.1 nM
- apparent KD of MS2 coat protein [2]: 31.1 nM

Sequence: AACAAACAUGAGGAUCACCCAUGUCAGGAUAUGCAAACAACAAACAACAAACAACAAAGCAGAAGGGAUAGGAA [63%, Olong, 4]
- apparent KD of MS2 coat protein [1]: 27.1 nM
- apparent KD of MS2 coat protein [2]: 21.2 nM

Sequence: AACAAGUCAGGAUAUUCGACAAGUAAAUAAGUAAAUCAAAAGAAGAAGGGACAUGAGGAUCACCCAUGUAAAUA [JR_Exc004_Sub401]
- apparent KD of MS2 coat protein [1]: 32.5 nM
- apparent KD of MS2 coat protein [2]: 21.3 nM

Sequence: AACAGGUCAGGAUAUGUGGAAAAAAUAAAAAAAAAUAAAACACAGAAGGGACAUGAGGAUCACCCAUGUAAACA [Mat - Exclusion 4 - Mayanna - D143]
- apparent KD of MS2 coat protein [1]: 49.3 nM
- apparent KD of MS2 coat protein [2]: 56.8 nM

Sequence: AACAGGUCAGGAUAUGUGGAAAAAAUAAAAAAAAUAAAAACACAGAAGGGACAUGAGGAUCACCCAUGUAAAAA [May 20]
- apparent KD of MS2 coat protein [1]: 59.5 nM
- apparent KD of MS2 coat protein [2]: 75.6 nM

Sequence: AACAGUACAGGAUAUACAUGAGGAUCACCCAUGUGAGAGGAAUAAAACAAAAAUAAAAGUAGAAGGGUACUGGA [Ruby 45]
- apparent KD of MS2 coat protein [1]: 35 nM
- apparent KD of MS2 coat protein [2]: 106 nM

Sequence: AACAGUACAGGAUAUACAUGAGGAUCACCCAUGUGAGCAUUAAAAGGCGUACCUAAAAGUAGAAGGGUACUGGA [JL Maslow Revisted mod 22]
- apparent KD of MS2 coat protein [1]: 24.8 nM
- apparent KD of MS2 coat protein [2]: 66.7 nM

Sequence: AACAGUACAGGAUAUACAUGAGGAUCACCCAUGUGAGCAUUAAAAGGCGUACCUCAAAGUAGAAGGGUACUGGA [JL Maslow Revisted mod 23]
- apparent KD of MS2 coat protein [1]: 107 nM
- apparent KD of MS2 coat protein [2]: 18.9 nM

Sequence: AACAGUACAGGAUAUACAUGAGGAUCACCCAUGUGGGAAAAAAGAUCGAGAGAUCAAUGUAGAAGGGUACUGGA [JL In the Red 03]
- apparent KD of MS2 coat protein [1]: 161 nM
- apparent KD of MS2 coat protein [2]: 427 nM

Sequence: AACAUACAUGAGGAUCACCCAUGUCAGGAUAUGCCGGGUUAGAGCCAACUGAAAAAACGUAGAAGGGACGAAAA [Bilbo Confounded 7 - Jieux - Exclusion 1]
- apparent KD of MS2 coat protein [1]: 110 nM
- apparent KD of MS2 coat protein [2]: 90.3 nM

Sequence: AACAUGUGAGGAUAUAAAAUGAAUAUAAAUUAUUAUCUUGAUUAGAAGGCACAUGAGGAUCACCCAUGUCUGAA [E4-1.2]
- apparent KD of MS2 coat protein [1]: 23.8 nM
- apparent KD of MS2 coat protein [2]: 25.2 nM

Sequence: AACUAACAUGAGGAUCACCCAUGUCAGGAUAUGCAAAGAUCGAUCGAACGAUCGAUAAGCAGAAGGGACAAAAA [Amethyst 95]
- apparent KD of MS2 coat protein [1]: 23.3 nM
- apparent KD of MS2 coat protein [2]: 36.9 nM

Sequence: AACUGACAUGAGGAUCACCCAUGUCAGGAUAUGAUUUGACGAAAUAAAUAAAGUCAUAUCAGAAGGGACAUGGA [Design 80: Sub-opt U]
- apparent KD of MS2 coat protein [1]: 25 nM
- apparent KD of MS2 coat protein [2]: 50.4 nM

Sequence: AACUGACAUGAGGAUCACCCAUGUCAGGAUAUGCUUCUAGGAAAAAUAAAAACUAGAUGCAGAAGGGAUAUGGG [Design 38]
- apparent KD of MS2 coat protein [1]: 22.2 nM
- apparent KD of MS2 coat protein [2]: 33.3 nM

Sequence: AACUGGGCAGGAUAUACAUGAGGAUCACCCAUGUAAAGAAAAGAAAGAUCCGAGGAAAGUAGAAGGGCCUGGAA [Variant 4 of Mod 1 of Ex3 sub 3, by Tesla's Dusciple Round 1]
- apparent KD of MS2 coat protein [1]: 55.6 nM
- apparent KD of MS2 coat protein [2]: 91.3 nM

Sequence: AAGAAACAUGAGGAUCACCCAUGUGAGGAUAUCUAAAAGAAAAGAAAAGAAAGAAGAAGGAGAAGGCACAAAGG [H—]
- apparent KD of MS2 coat protein [1]: 34.3 nM
- apparent KD of MS2 coat protein [2]: 29 nM

Sequence: AAGAAACAUGAGGAUCACCCAUGUGAGGAUAUUGAAGAAAGAAAGAAAGAAAGAAGAACAAGAAGGCACAAAGG [Quintus Magnus Maximus]
- apparent KD of MS2 coat protein [1]: 26.9 nM
- apparent KD of MS2 coat protein [2]: 35 nM

Sequence: AAGAACCAAGGAUAUACAUGAGGAUCACCCAUGUAAAAGAAAGAGGGAAAAGAGAAAAGUAGAAGGUGGAAGAA [Ptolemy VI Philometor]
- apparent KD of MS2 coat protein [1]: 27.5 nM
- apparent KD of MS2 coat protein [2]: 32.1 nM

Sequence: AAGAACGAAGGAUAUACAUGAGGAUCACCCAUGUAAAAGAAAGAAAAGGGAAAGAAAAGUAGAAGGUCGAAGAA [Banenre Merenptah]
- apparent KD of MS2 coat protein [1]: 21.5 nM
- apparent KD of MS2 coat protein [2]: 33.1 nM

Sequence: AAGAACGUAGGAUAUACAUGAGGAUCACCCAUGUAAAAGAAAGAGGGAAAAGAGAAAAGUAGAAGGACGAAGAA [Cleopatra II]
- apparent KD of MS2 coat protein [1]: 26.1 nM
- apparent KD of MS2 coat protein [2]: 38.2 nM

Sequence: AAGAACUAAGGAUAUACAAAAUAAAAGAAAAGAAAGAAAGAACAUGAGGAUCACCCAUGUAGAAGGUAGAAGAA [Khakheperre Senusret II]
- apparent KD of MS2 coat protein [1]: 19.9 nM
- apparent KD of MS2 coat protein [2]: 15.1 nM

Sequence: AAGAACUGAGGAUAUACAUGAGGAUCACCCAUGUAAAAGAAAGAGGGAAAAGAGAAAAGUAGAAGGCAGAAGAA [Berenice II]
- apparent KD of MS2 coat protein [1]: 24.9 nM
- apparent KD of MS2 coat protein [2]: 32.4 nM

Sequence: AAGAACUGAGGAUAUACUAAAGAAAUGAAAAGAAAGAAAGAACAUGAGGAUCACCCAUGUAGAAGGCAGAAGAA [Ya'ammu Nubwoserre]
- apparent KD of MS2 coat protein [1]: 29.9 nM
- apparent KD of MS2 coat protein [2]: 18 nM

Sequence: AAGAACUUAGGAUAUACAAGGAAGAAAGAAAAGAAAAGAAAACAUGAGGAUCACCCAUGUAGAAGGAAGUAGAA [EteRNA is fun!]
- apparent KD of MS2 coat protein [1]: 40.9 nM
- apparent KD of MS2 coat protein [2]: 21.5 nM

Sequence: AAGAAGACAGGAUAUACAAAAUAAAAGAAAAGAAAGAAAGAACAUGAGGAUCACCCAUGUAGAAGGGUCAAGAA [Sekhemkare Amenemhat V]
- apparent KD of MS2 coat protein [1]: 69.9 nM
- apparent KD of MS2 coat protein [2]: 31.1 nM

Sequence: AAGAAGAGAGGAUAUACAUGAGGAUCACCCAUGUAAAAGAAAGAAAGGGAAAAGAAAAGUAGAAGGCUCAAGAA [Neferkare-setpenre Ramesses IX]
- apparent KD of MS2 coat protein [1]: 34.6 nM
- apparent KD of MS2 coat protein [2]: 45.7 nM

Sequence: AAGAAGCAAGGAUAUACAUGAGGAUCACCCAUGUAAAAGAAAGAGAAGGGAAAGAAAAGUAGAAGGUGCGAAAA [Ruby 71]
- apparent KD of MS2 coat protein [1]: 20.2 nM
- apparent KD of MS2 coat protein [2]: 23.7 nM

Sequence: AAGAAGCAAGGAUAUACUAAAGAAAUGAAAAGAAAUAAAGAACAUGAGGAUCACCCAUGUAGAAGGUGCAAGAA [Webenre]
- apparent KD of MS2 coat protein [1]: 50.4 nM
- apparent KD of MS2 coat protein [2]: 39.3 nM

Sequence: AAGAAGCUAGGAUAUACUAAAGAAAUGAAAAGAAAUAAAGAACAUGAGGAUCACCCAUGUAGAAGGAGCAAGAA [Djefare]
- apparent KD of MS2 coat protein [1]: 42.3 nM
- apparent KD of MS2 coat protein [2]: 18.9 nM

Sequence: AAGAAGGCAGGAUAUACAAAAUAAAAGAAAAGAAAGAAAGAACAUGAGGAUCACCCAUGUAGAAGGGUCAAGAA [Sankhenre Sewadjtu]
- apparent KD of MS2 coat protein [1]: 47.9 nM
- apparent KD of MS2 coat protein [2]: 37.2 nM

Sequence: AAGAAGGCAGGAUAUACUAAAGAAAUGAAAAGAAAUAAAGAACAUGAGGAUCACCCAUGUAGAAGGGCCAAGAA [Khakherewre]
- apparent KD of MS2 coat protein [1]: 35.2 nM
- apparent KD of MS2 coat protein [2]: 24.1 nM

Sequence: AAGAAGGUAGGAUAUACUAGGGCAACUAAUGCAAAGAUAGGACAUGAGGAUCACCCAUGUAGAAGGGCCAGAAA [JR_Exc002_Sub403]
- apparent KD of MS2 coat protein [1]: 48 nM
- apparent KD of MS2 coat protein [2]: 59.6 nM

Sequence: AAGAAGUCAGGAUAUGCUGCUCGUCACGAAAGUGAUGAGUAGCAGAAGGGACAUGAGGAUCACCCAUGUAAAGA [Exclusion 4.1 (Exclusion4-cac2 - the real original)]
- apparent KD of MS2 coat protein [1]: 55.2 nM
- apparent KD of MS2 coat protein [2]: 66.6 nM

Sequence: AAGAAGUGAGGAUAUACAAAAUAAAAGAAAAGAAAGAAAGAACAUGAGGAUCACCCAUGUAGAAGGCACAAGAA [Sekhemkare Amenemhat V]
- apparent KD of MS2 coat protein [1]: 22 nM
- apparent KD of MS2 coat protein [2]: 17.8 nM

Sequence: AAGAAGUGAGGAUAUACAUGAGGAUCACCCAUGUUAAGAAGAAUUUUAGAGAAAGAAGGUAGAAGGCACAAGAA [JR_Exclusion3_Sub5]
- apparent KD of MS2 coat protein [1]: 34.7 nM
- apparent KD of MS2 coat protein [2]: 35.3 nM

Sequence: AAGAAGUGAGGAUAUCGAAGACUGUCGAAAAGACAGUCGAACGAGAAGGCACAUGAGGAUCACCCAUGUGGGAG [Mat - Exaclusion 4 - Eli mod - D71]
- apparent KD of MS2 coat protein [1]: 80.5 nM
- apparent KD of MS2 coat protein [2]: 176 nM

Sequence: AAGAAGUGAGGAUAUCGUGCUCGUCACAAAAGUGAUGAGUACGAGAAGGCACAUGAGGAUCACCCAUGUAAAGA [Opal 36]
- apparent KD of MS2 coat protein [1]: 40.1 nM
- apparent KD of MS2 coat protein [2]: 52.6 nM

Sequence: AAGAAUCGAGGAUAUACAAGAAAGAAAGAAAAGAAAAGAAAACAUGAGGAUCACCCAUGUAGAAGGCGAUAGAA [EteRNA is fun!]
- apparent KD of MS2 coat protein [1]: 22 nM
- apparent KD of MS2 coat protein [2]: 24.6 nM

Sequence: AAGAAUGGAGGAUAUACAUGAGGAUCACCCAUGUAAAAGAAAGAAGGGAAAGAGAAAAGUAGAAGGCCAAAGAA [Khuinefertemre Taharqa]
- apparent KD of MS2 coat protein [1]: 26.5 nM
- apparent KD of MS2 coat protein [2]: 53.8 nM

Sequence: AAGAUCAGAGGAUAUACAUAAGGUGAUGAAAACAUCGCCAAACAUGAGGAUCACCCAUGUAGAAGGCUGAUCAA [JL EX2 1]
- apparent KD of MS2 coat protein [1]: 118 nM
- apparent KD of MS2 coat protein [2]: 231 nM

Sequence: AAGGGACAUGAGGAUCACCCAUGUGAGGAUAUGAUGCGAAUAAAGAAAUAAUAAAGCAUCAGAAGGCACACCAA [Mat - Exclusion 1 - Eli mod - D67]
- apparent KD of MS2 coat protein [1]: 82.4 nM
- apparent KD of MS2 coat protein [2]: 88.5 nM

Sequence: AAGGGACAUGAGGAUCACCCAUGUUAGGAUAUGCAAAUAACAAACAACAAACAACAAAGCAGAAGGGACAAAAA [Mat - Exclusion 1 - Eli mod - D54]
- apparent KD of MS2 coat protein [1]: 37.5 nM
- apparent KD of MS2 coat protein [2]: 29.3 nM

Sequence: AAGGGACAUGAGGAUCACCCAUGUUAGGAUAUGCUAUGGAAAAUAAAAAUAAAACAUAGCAGAAGGAACAAAAA [Denovo 8]
- apparent KD of MS2 coat protein [1]: 39.2 nM
- apparent KD of MS2 coat protein [2]: 61.8 nM

Sequence: AAGGUAUAAGGAUAUACAUAGAUACAGACACAUGUUCAAGUACAUGAGGAUCACCCAUGUAGAAGGUAUAUAUA [AJ 13]
- apparent KD of MS2 coat protein [1]: 29.2 nM
- apparent KD of MS2 coat protein [2]: 26.7 nM

Sequence: AAGGUUCGAGGAUAUACAUAGAUACAGAUACAUGUAGACGUACAUGAGGAUCACCCAUGUAGAAGGCGAAUAUA [AJ 25]
- apparent KD of MS2 coat protein [1]: 69.7 nM
- apparent KD of MS2 coat protein [2]: 142 nM
